Experimental data taken from article doi:10.1101/123679 (bioRxiv, 2017).

Key:
Assay in all cases: FRET or BRET
[1] = target: T1, RTN2 fused to mRFP (Arabidopsis reticulon 2) (Arabidopsis thaliana, UniProt Q9SUT9 1-271)
T1 sequence (looked up): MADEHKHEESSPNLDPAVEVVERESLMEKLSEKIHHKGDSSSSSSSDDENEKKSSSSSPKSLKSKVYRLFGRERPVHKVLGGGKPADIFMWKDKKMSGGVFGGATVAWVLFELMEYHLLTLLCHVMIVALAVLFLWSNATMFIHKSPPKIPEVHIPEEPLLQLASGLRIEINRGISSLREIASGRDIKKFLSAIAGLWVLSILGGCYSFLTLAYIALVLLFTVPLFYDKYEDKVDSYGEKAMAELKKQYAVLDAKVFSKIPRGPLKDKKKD

[2] = target: T2, RTN3 fused to mRFP (Arabidopsis reticulon 3) (Arabidopsis thaliana, UniProt Q9SH59 1-255)
T2 sequence (looked up): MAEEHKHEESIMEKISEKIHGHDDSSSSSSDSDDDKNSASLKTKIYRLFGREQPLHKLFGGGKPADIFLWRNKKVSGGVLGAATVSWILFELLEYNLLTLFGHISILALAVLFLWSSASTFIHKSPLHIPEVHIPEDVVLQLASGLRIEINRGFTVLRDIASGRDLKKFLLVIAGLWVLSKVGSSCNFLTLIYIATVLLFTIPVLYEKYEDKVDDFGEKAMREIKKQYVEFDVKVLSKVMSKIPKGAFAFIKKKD

[3] = target: T3, mRFP-RTN1 (Arabidopsis reticulon 1) (Arabidopsis thaliana, UniProt Q9SUR3 1-275)
T3 sequence (looked up): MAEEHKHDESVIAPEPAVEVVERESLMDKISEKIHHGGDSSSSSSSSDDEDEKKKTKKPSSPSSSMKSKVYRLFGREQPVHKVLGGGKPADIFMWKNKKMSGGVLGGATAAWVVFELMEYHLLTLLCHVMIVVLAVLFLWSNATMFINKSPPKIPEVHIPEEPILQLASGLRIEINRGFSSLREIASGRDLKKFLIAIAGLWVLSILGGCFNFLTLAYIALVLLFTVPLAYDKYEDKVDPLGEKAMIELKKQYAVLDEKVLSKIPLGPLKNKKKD

[4] = target: T4, RTN19 fused to mRFP (Arabidopsis reticulon 19, 3BETAHSD/D2) (Arabidopsis thaliana, UniProt Q67ZE1 1-564)
T4 sequence (looked up): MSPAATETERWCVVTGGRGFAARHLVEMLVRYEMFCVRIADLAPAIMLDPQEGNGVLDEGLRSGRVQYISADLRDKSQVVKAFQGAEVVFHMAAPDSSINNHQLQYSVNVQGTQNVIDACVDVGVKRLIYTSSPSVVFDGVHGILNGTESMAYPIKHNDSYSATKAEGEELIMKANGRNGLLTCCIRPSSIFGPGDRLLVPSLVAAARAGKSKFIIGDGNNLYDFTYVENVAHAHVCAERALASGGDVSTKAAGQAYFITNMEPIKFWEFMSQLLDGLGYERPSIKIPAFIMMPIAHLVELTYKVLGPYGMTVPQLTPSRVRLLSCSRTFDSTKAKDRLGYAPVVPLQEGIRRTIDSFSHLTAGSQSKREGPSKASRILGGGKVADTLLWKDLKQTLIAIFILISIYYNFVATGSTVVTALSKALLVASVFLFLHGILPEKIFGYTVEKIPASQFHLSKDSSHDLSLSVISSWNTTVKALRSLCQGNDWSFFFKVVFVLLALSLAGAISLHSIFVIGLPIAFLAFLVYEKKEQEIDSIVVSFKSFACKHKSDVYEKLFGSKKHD

fluorescence lifetime of the GFP donor (FRET-FLIM) [1]: 2.2 ns | fluorescence lifetime of the GFP donor (FRET-FLIM) [2]: 2.2 ns | fluorescence lifetime of the GFP donor (FRET-FLIM) [3]: 2.21 ns | fluorescence lifetime of the GFP donor (FRET-FLIM) [4]: 2.2 ns
B1: GFP-RTN20 (Arabidopsis reticulon 20) (natural protein, Arabidopsis thaliana, UniProt A9X4U2 1-561, looked up)
chain: MDEDSVHGDSHLKTCVVLGGRGFIGRSLVSRLLRLGNWTVRVADSGHTLHLDESDSLLEDALSSGRASYHCVDVRDKPQIVKVTEGSYVVFYMGATDLRSHDYFDCYKVIVQGTRNVISACRESGVRKLIYNSTADVVFDGSQPIRDGDESLRRPLKFQSMLTDFKAQAEALIKLANNRDGLLTCALRSSIVFGPGDTEFVPFLVNLAKSGYAKFILGSGENISDFTYSENVSHAHICAVKALDSQMEFVAGKEFFITNLKPVRFWDFVSHIVEGLGYPRPSIKLPVRLVLYVFSLLKWTHEKEGLGSNYDTAHQYALLASSTRTFNCNAAKKHLGYTPVVTLEDGIASTLQWFSRDLEKSDDTIIQSTADQLLGCGKVADILLWRNEKKTFVSFLVLNLFYYWFFFSGNTFTSSAAQLLFIFAVALYGVSFVPSKIFGFQVNKIPPWRFEISESAVRDLSSDIVVVWNQGVRSFKSLSSGGDWIKFFKIAGSLYLLKLIVSRSLAAFLFTVMSFSFTGFFIYEQYELELYHLARIFVECLTFIKRMVIPVSDASSKPMFM
